We go through four molecules from patent US20220056094A1 (JIANGSU HENGRUI MEDICINE, published 2022).

Like-named read-outs stand apart in the source and are kept apart here.

Test [1] deals with T1, high-affinity receptor IL-2Rα/β/γ on CTLL2 cells (mouse-derived cell line) (mouse, UniProt P01590 22-268; P16297 27-539; P34902 23-369).
T1 sequence (looked up) 1: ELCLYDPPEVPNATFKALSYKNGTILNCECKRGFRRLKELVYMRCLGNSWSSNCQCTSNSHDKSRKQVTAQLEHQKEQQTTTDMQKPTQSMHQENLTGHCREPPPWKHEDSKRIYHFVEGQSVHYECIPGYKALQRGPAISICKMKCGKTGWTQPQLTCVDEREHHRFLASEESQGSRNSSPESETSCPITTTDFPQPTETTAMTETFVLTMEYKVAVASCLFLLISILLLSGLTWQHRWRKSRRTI
T1 sequence (looked up) 2: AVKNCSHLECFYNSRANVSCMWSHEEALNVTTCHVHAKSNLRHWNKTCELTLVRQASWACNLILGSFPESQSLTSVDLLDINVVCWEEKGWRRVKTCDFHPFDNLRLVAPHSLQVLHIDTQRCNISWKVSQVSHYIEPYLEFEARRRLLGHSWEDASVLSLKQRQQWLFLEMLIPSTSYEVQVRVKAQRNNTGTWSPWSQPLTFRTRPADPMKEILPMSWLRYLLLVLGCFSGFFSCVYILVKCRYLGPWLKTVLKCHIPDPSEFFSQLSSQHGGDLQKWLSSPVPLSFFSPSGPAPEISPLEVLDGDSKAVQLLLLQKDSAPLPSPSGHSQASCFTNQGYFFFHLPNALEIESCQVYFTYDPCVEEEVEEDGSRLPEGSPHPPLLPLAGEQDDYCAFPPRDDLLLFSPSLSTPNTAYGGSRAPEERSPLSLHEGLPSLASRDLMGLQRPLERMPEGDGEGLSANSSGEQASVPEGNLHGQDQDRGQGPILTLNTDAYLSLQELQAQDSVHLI
T1 sequence (looked up) 3: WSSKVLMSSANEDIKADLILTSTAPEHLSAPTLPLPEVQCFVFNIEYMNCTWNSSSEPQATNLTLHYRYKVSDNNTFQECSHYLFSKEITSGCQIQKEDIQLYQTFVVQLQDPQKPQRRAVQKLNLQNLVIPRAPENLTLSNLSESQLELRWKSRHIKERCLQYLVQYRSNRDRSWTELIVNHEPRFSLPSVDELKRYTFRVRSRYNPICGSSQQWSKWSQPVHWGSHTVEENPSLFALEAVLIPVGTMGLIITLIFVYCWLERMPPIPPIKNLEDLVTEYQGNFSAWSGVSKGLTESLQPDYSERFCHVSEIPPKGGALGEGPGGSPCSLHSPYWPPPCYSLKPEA
In words: cell-based or functional assay.

Test [2] has as its target T2, medium-affinity receptor IL-2Rβ/γ on human cells (Mo7e cell line; human CD8+T and NK cells) (human, UniProt P14784 27-551; P31785 23-369).
T2 sequence (looked up) 1: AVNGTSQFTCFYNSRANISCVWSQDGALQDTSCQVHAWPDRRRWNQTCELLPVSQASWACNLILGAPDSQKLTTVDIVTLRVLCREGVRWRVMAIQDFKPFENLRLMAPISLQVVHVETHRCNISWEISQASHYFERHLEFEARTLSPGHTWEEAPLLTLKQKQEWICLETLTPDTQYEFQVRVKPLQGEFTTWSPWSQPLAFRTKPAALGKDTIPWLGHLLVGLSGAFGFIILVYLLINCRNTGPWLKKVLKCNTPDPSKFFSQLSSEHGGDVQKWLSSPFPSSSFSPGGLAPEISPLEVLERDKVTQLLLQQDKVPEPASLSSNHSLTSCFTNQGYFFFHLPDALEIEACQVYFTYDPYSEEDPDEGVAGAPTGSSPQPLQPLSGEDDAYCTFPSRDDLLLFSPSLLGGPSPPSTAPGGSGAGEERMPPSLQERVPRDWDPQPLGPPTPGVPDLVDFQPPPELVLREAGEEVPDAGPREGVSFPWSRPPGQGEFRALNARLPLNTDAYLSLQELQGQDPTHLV
T2 sequence (looked up) 2: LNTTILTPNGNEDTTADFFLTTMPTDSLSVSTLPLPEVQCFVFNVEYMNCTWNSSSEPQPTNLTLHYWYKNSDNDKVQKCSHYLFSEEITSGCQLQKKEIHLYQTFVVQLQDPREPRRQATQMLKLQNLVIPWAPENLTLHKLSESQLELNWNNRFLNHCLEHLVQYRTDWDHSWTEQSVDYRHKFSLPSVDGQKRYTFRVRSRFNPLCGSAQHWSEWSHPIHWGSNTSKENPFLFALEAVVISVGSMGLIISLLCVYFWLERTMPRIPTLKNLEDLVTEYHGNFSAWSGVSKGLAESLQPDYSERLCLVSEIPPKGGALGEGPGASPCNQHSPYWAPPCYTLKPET
The experiment in a line: cell-based or functional assay.

The target of test [3] is T3, IL-2Rβ/γ-Fc heterodimer (IL-2Rβ-Fc-hole with IL-2Rγ-Fc-knob).
T3 construct: Co-expressed in HEK293 cells and purified with Protein A and Superdex 200
In words: SPR (Biacore), IL-2Rβ/γ-Fc captured on Protein A chip, 1:1 model. On the procedure:
The Protein A sensor chip (GE, Cat #29127556) of the Biacore instrument (Biacore T200, GE) was used to capture IL-2Rβ/γ-Fc, wherein IL-2Rβ/γ-Fc was diluted with 1×HBS-EP to 1 μg/mL, and flowed at a flow rate of 10 μL/min for 30 seconds. […] The Biacore instrument (Biacore X100, GE) was used to detect the reaction in real time, to obtain association and dissociation curves. After each cycle of dissociation was completed, the chip was washed and regenerated with 10 mM Gly-HCl pH 1.5.

Test [4] addresses T1, high-affinity receptor IL-2Rα/β/γ on …. The experiment in a line: cell-based or functional assay. This is another data set of the same source.
The target is the same in test [5]. In words: cell-based or functional assay. The source holds these as a separate data set.

T3 sequence (chain, as listed by the source limits assumed, chain 1 of 2): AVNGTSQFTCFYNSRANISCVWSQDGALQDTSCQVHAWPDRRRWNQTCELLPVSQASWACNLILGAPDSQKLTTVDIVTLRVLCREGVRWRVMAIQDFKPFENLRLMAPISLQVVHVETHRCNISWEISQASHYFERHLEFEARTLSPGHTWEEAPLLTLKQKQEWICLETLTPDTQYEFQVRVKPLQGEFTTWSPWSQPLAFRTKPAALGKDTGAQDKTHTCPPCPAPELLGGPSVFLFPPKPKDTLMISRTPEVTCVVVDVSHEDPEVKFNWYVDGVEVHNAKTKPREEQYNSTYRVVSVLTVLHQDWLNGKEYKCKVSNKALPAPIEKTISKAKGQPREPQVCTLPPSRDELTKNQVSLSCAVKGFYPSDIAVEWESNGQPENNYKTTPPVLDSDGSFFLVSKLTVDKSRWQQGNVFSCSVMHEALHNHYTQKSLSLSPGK
T3 sequence (chain, as listed by the source limits assumed, chain 2 of 2): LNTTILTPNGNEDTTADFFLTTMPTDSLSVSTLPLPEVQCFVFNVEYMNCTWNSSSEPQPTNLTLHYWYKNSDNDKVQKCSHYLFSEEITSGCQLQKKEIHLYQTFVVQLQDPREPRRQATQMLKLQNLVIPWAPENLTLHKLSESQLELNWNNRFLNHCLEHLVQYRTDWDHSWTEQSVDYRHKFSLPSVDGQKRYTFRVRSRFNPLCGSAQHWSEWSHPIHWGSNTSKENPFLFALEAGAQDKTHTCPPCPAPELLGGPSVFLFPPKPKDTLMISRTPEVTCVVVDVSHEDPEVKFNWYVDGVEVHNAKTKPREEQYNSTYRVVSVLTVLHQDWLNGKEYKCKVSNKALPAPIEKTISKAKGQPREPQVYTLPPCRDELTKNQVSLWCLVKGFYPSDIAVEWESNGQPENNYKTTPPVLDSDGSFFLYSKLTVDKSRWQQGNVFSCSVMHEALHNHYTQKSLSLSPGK

B1: IL-2-10 (N26Q/N30S/F42A/L72G) (ligand)
chain: MAPTSSSTKKTQLQLEHLLLDLQMILQGINSYKNPKLTRMLTAKFYMPKKATELKHLQCLEEELKPLEEVLNGAQSKNFHLRPRDLISNINVIVLELKGSETTFMCEYADETATIVEFLNRWITFAQSIISTLT
notes: The entry already carries the mutations and C125A and begins with M. Made in E. coli
Take B1: in test [1], the “EC50 (CTLL2 cell proliferation)” value was found to be 4.8 nM and the “relative biological activity (CTLL2 cell proliferation)” value came to 1%. For the same molecule, in test [2], the “EC50 (Mo7e cell proliferation)” value turned out to be 1.78 nM and the “relative biological activity (Mo7e cell proliferation)” value was determined as 137%. In test [3], the Kd came to 0.266 nM, the koff came out at 0.00043 s⁻¹ and the association rate constant (kon) was determined as 1.62e+06 M⁻¹ s⁻¹.

B2: IL-2-08 (F42A/L72G) (ligand)
chain: MAPTSSSTKKTQLQLEHLLLDLQMILNGINNYKNPKLTRMLTAKFYMPKKATELKHLQCLEEELKPLEEVLNGAQSKNFHLRPRDLISNINVIVLELKGSETTFMCEYADETATIVEFLNRWITFAQSIISTLT
notes: as for B1
Take B2: in test [4], the “relative biological activity (CTLL2 cell proliferation)” value came to 7%. For the same molecule, in test [5], the “EC50 (STAT5 phosphorylation in CTLL2 cells)” value was found to be 3.93 nM and the “relative biological activity (STAT5 phosphorylation in CTLL2 cells)” value stood at 0.25%. Also, in test [3], the Kd was found to be 0.224 nM, the koff was 0.000206 s⁻¹ and the kon stood at 920000 M⁻¹ s⁻¹.

B3: IL-2-09 (Y45A/L72G) (ligand)
chain: MAPTSSSTKKTQLQLEHLLLDLQMILNGINNYKNPKLTRMLTFKFAMPKKATELKHLQCLEEELKPLEEVLNGAQSKNFHLRPRDLISNINVIVLELKGSETTFMCEYADETATIVEFLNRWITFAQSIISTLT
notes: as for B1
In the case of B3, in test [4], the “relative biological activity (CTLL2 cell proliferation)” value stood at 2%. In addition, in test [5], the “EC50 (STAT5 phosphorylation in CTLL2 cells)” value is 4.02 nM and the “relative biological activity (STAT5 phosphorylation in CTLL2 cells)” value was 0.25%. Also, in test [3], the Kd came to 0.344 nM, the koff was 0.000222 s⁻¹ and the kon turned out to be 646000 M⁻¹ s⁻¹.

B4: IL-2-06 (… at positions 29-44 mutated into QSMHIDATL) (ligand)
chain: MAPTSSSTKKTQLQLEHLLLDLQMILNGIQSMHIDATLYMPKKATELKHLQCLEEELKPLEEVLNLAQSKNFHLRPRDLISNINVIVLELKGSETTFMCEYADETATIVEFLNRWITFAQSIISTLT
notes: The entry already carries the replacement and C125A and begins with M. Made in E. coli
Regarding B4, in test [4], the “relative biological activity (CTLL2 cell proliferation)” value is 4%. In test [3], this molecule gave a Kd of 0.509 nM, a koff of 0.000436 s⁻¹ and a kon of 856000 M⁻¹ s⁻¹.
